The values below come from publication PMC12033333 (Nature Communications, 2025).

B1: MBP-fused phyA^OPM (domain or fragment)
chain: KIDGIQELEAVTSEMVRLIETATVPILAVDSDGLVNGWNTKIAELTGLSVDEAIGKHFLTLVEDSSVEIVKRMLENALEGTEEQNVQFEIKTHLSRADAGPISLVVNACASRDLHENVVGVCFVAHDLTGQKTVMDKFTRIEGDYKAIIQNPNPLIPPIFGTDEFGWCTEWNPAMSKLTGLKREEVIDKMLLGEVFGTQKSCCRLKNQEAFVNLGIVLNNAVTSQDPEKVSFAFFTRGGKYVECLLCVSKKLDREGVVTGVFCFLQLASHELQQALHVQRLAERTAVKRLKALAYIKRQIRNPLSGIMFTRKMIEGTELGPEQRRILQTSALCQKQLSKILDDSDLESIIEGCLDLEMKEFTLNEVLTASTSQVMMKSNGKSVRITNETGEEVMSDTLYGDSIRLQQVLADFMLMAVNFTPSGGQLTVSASLRKDQLGRSVHLANLEIRLTHTGAGIPEFLLNQMFGTEEDVSEEGLSLMVSRKLVKLMNGDVQYLRQAGKSSFIITAELAAANK

What all share (assay): pull-down
One test concerns the target T1, SBP-fused phyA^PSM (Arabidopsis thaliana, UniProt P14712 1-615, chromophore-bound (phycocyanobilin, PCB)).
T1 sequence: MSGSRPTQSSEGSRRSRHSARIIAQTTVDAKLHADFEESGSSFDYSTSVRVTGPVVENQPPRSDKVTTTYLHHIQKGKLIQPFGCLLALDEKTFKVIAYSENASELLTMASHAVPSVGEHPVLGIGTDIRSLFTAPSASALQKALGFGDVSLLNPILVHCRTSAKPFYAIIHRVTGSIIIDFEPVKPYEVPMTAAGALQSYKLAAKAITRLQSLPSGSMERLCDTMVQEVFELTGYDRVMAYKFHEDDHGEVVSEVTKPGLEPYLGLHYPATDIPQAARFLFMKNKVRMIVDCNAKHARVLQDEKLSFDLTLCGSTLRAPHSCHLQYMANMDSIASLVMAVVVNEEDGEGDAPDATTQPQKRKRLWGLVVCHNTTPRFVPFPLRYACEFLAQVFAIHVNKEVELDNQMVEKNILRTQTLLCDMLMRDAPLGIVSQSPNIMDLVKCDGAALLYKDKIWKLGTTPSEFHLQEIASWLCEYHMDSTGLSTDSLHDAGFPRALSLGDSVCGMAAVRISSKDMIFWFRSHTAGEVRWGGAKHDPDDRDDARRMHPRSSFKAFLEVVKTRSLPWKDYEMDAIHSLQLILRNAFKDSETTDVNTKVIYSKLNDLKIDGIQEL

Another test concerns the target T2, GST-PIF3 (Arabidopsis thaliana, UniProt O80536 1-524).
T2 sequence: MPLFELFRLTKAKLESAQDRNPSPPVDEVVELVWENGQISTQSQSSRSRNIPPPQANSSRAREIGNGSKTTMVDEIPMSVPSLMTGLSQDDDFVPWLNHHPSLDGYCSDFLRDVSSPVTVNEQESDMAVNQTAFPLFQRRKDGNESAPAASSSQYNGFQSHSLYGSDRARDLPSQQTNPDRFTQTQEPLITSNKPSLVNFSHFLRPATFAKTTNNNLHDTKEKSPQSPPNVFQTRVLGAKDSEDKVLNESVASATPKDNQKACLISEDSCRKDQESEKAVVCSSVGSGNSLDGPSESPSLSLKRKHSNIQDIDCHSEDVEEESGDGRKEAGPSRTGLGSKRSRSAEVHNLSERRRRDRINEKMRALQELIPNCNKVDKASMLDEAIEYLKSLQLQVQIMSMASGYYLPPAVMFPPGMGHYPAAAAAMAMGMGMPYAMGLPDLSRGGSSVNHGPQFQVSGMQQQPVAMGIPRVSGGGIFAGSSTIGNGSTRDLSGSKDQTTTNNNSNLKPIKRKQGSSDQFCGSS

For the test “MBP-fused phyA^OPM”, the target named is B1.
A further test has as its target T3, MBP-fused phyB^OPM (Arabidopsis thaliana, UniProt P14713 642-1172).
T3 sequence: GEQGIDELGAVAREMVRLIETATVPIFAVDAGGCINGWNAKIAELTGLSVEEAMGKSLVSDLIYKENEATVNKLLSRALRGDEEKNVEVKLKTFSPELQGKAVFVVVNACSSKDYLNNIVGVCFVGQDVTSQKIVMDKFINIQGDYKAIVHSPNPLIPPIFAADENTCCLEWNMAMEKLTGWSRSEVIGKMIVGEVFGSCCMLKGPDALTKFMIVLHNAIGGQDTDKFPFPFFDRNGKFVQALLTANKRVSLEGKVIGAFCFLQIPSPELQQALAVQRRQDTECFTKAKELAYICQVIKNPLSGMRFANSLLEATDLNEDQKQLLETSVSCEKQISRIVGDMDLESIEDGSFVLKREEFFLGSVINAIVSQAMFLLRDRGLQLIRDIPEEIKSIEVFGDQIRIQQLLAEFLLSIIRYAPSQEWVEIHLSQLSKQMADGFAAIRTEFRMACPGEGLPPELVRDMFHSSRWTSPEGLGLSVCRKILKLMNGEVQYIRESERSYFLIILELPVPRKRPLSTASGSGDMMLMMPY

On to B1, for which the binding result with SBP-fused phyA^PSM and in the test with GST-PIF3 was “binds” in each case.

B2: GST-fused APA (PIF3 86-221 a.a.) (domain or fragment)
chain: GLSQDDDFVPWLNHHPSLDGYCSDFLRDVSSPVTVNEQESDMAVNQTAFPLFQRRKDGNESAPAASSSQYNGFQSHSLYGSDRARDLPSQQTNPDRFTQTQEPLITSNKPSLVNFSHFLRPATFAKTTNNNLHDTK
As for B2, the binding result in the test with MBP-fused phyA^OPM and in the test with MBP-fused phyB^OPM was “binds” each time.
